# According to patent publication US20240026407A1, “MODIFICATION OF SAPONINS” (GLAXOSMITHKLINE BIOLOGICALS SA, priority 2020, published 2024):
# B1: 874 (protein)
# chain: MSEQTSSSTYPSVNDLSLEEKASLTSGGDAWHLQPIEERGIPGYMITDGPHGLRKTAGDTGAIDLEHTVPATCFPPAAGMSSTWNPELVEEVGQAMAEECIQEKVAVILGPGVNIKRNPLGGRCFEYWSEDPYLAGHEAVGIVKGVQSKGVGTSLKHFAVNNQETDRLRIDARVSQRALREIYLPAFEHIVKTAQPWTVMCAYNRINGVYAAQNRWLLTDVLRKEWGFKGIVMSDWGADHDRVASLNAGLNLEMPPSFTDDQIVSAARDGRISPKQLDDMAQGMIGLVNKTRQAMSVEDYRFDAQVHDDIARRAAAESMVLLKNDEHILPLSKNARVAVIGEFARTPRYQGGGSSHITPTQLTSLLDALQQRGIEYDFAPGFTLEDGEQEQSLVDEAVNIASKADAVVMCLGLPEYAESEGFDRTSLDIPAKQLELLSKVRESNANVVVLLSNGSVVSLTPWQDQAKAVVETWLLGQSGGGAIADMLFGDVNPSGKLSQTIPLNILDDPSMLNWPGEEGHVDYGEGVFVGYRYYDTYAKEVAYPFGFGLSYSDFSIDNVSVERTGANTACVRATVTNVSQTAGAQTVQIYVAPGRSEVARPVHELKGFAKVFLEAGESKEISIDLDERAFAYWSERFNDWHIEAGTYGIEVATSSRDIVERLDIELEGDGKSLPLNEWSNMSEWRKDPVGGPIVKRMFEEGRDGRIPALPENNLGAELFLDAMPINSMSVLLGKDGKVLTQFLLDEYAKETDGLH
# modifications: Bifidobacterium tsurumiense
# B2: 873 (protein, listed as Bifidobacterium longum)
# chain: MSESTYPSVKDLTLEEKASLTSGGDAWHLQGVEAKGIPGYMITDGPHGLRKSLTSSTGETDLDNSVPATCFPPAAGLSSSWNPELIHKVGEAMAEECIQEKVAVILGPGVNIKRNPLGGRCFEYWSEDPYLAGHEAIGIVAGVQSKGVGTSLKHFAANNQETDRLRVDARISQRALREIYLPAFEHIVKTAQPWTIMCSYNRINGVHSAQNHWLLTDVLRDEWGFEGIVMSDWGADHDRVASLNAGLNLEMPPSYTDDQIVYAARDGRIAPAQLDRMAQGMIDLINKARAAMSIDGYRFDVDAHDEVAHQAAIESIVLLKNDDAILPLNADPAAARKIAVIGEFARTPRYQGGGSSHITPTKMTSFLDTLAERGIKADFAPGFTLDMESADPALESEAVETAKNADVVLMFLGLPEAAESEGFDRDTLDMPAKQIALLEQVAAANKNVVVVLSNGSVITVAPWAKNAKGILESWLLGQSGGPALADVIFGQVSPSGKLAQSIPLDINDDPSMLNWPGEEGHVDYGEGVFVGYRYYDTYGKVVDYPFGYGLSYATFEIADVAAAKTGANTATVTATVTNTSDVDASETVQVYVAPGKADVARPKHELKGFTKVFLKAGESKTVTIDLDERAFAYWSEKYNDWHVESGEYAIEVGTSSRDIAETVTVALDGDGKTQPLTEWSTYGEWEADPFGAKIVAAVAAAGEAGELLKLPDNAMMRMFLNSMPINSLPTLLGEGGKKIAQFMLDEYAKLSK
# B3: 844 (protein, listed as Paenarthrobacter aurescens)
# chain: MNPTLSAAVTAPSAGTQDAEAEIRDLAQSLTLEQQVQLLTGADVWSTHAIPEIGLSRVVMSDGPAGVRGEDFDERHDSVSLPSSSALSATWSVETARNYGQVLGQEARRKGVHAVLGPTINLHRSPLGGRHFECMSEDPRLTATMAAGYVAGVQSMGVGATPKHYLANEAETERFTADSVVDERPLRELYLAAFEDAITEARAWLVMSSYNSINGTTASENKLLETPLSTEWGFDGVVVSDWTGVRSIDAANAHQDLEMPGPVGHWGPKLLAAVNEGRVSREAILEKVTRILRLAARVGSLEGFEPAVTHLPTELNGAAVAREVAVRGAVLVRNKGLLPLDAKALGSVAVIGHNADEARTQGGGSATVMPKYTVSPLEGLRKALPEGVKVTYARGAKVAEGIQAFPRTSLHNPVSNVPGIRVTFLAEDGTEISGEDRLASHLIWFGIGIPDGAASIRMEADWTAETAGVHHLGVGTVGRIRFVLDGTEVFNSELEDDTEVLGAALFDPPKTVHAIDTTAGQSIRIEAEYQLPKEQVIPFTAILLGEETVVAEPQAEIDAAVEAARASDVAVVVVGTNAAIESEGFDRKDLDLPGYQNQLVKAVAAANPRTVVVVNSGSPVLMPWLDTVDAVLLGWFGGQEFGSAVADILLGVEEPGGRLPTTWPSALDDVPVLNTTPTDGKVVYSEGIHIGYRAWLKQQAEGGAAPALPFGFGLGYTTFEFGKAHAPQAVTAGKDLVVHVPVKNTGTRTGREVVQVYVERTESAVERPVRWLAGYAGAHLAPAGTESVEIRIPAKAFAHYDGGWQFEQGTFRLLVGRHAADDFQSLDIELR
# B4: 870 (protein)
# chain: MTEQTHTKAKDLDLQEEASLTSGSDSWHLQGLPDKGYEGYMITDGPYGLRKATGSDVYGSVPATCFPPTAGLASSWNPDLTYQVGQAMGEECIQEKVAVILGPGINIKRSPLGGRNFEFYSEDPVLAGHEAAGLVEGVQSKGVGTSLKHFAANNQETDRLRVSSDVDVRTLREIYLPAFEYVVKNAKPWTIMCAYNKVNGVFSSENRWLLTDVLRGEWGYQGMVMSDWGAVHNRVDALQAGLNLEMPPSRTDDQVVQAVQAGKLDKEQLDRMAQGILDLIDKARPAMSQQGYRYDVQEHNDMARRAAQESIVLLRNEDRILPLDPQKKVAVIGEFARTPRYQGGGSSHITPTEVSSALDGFKEAGMNVDFAPGFTLDEKEQDPALTRQALEVARGADTVVLFLGLPEYAESEGFDRTSMDLPEKQVALLKAVSEVNDRVVAVLSNGAVVTVADWMDKTKGLLETWLLGQEGGRAVVDVLTGAATPSGHLPETIPVRLEDNPTITSFPGEEGHSRYGEGVYVGYRYYDTFQRPVAFPFGFGLSYADFALDQVAVTKTGASSARVEVTVTNTSQVDGAQTVQVYVAPCASRVNRPSHELKAFTKVFLKAGQSSRVSMDLTERDFAYWSTAMDAWHVEAGTYRIQVGTSSRDLVAEEDLQVDGDGRFIPLNAESTMAEWRENSIGGPIMRDRIDQDGIPLPDDPNTAQLFDTMPLASVITLSGGDGNGIVADMVDRYHQALKQQGRDS
# modifications: Bifidobacterium asteroides
# B5: 882 (protein, listed as Acidipropionibacterium acidipropionici)
# chain: MAESPIQSLSMRSLSTEQKAALTSGADFWHTESCAPLGLPAIMLTDGPHGLRKQTGSTDMLGLGSSVPATCFPPAVGLGSSWDVDLIHRVGAALGAEASIEGVAVLLGPAINIKRSPLCGRNFEYISEDPLVAGTLGAAMVEGIQSRAVGACVKHFAANNQETDRMRVSADVDPRALHEIYLRAFEQVVRRAEPWMVMCSYNRINGVPASQDHWLLTDLLRGQWGFDRVVVSDWGAVSDRVASLSAGLDLEMPGTAGRTDAQILAALASGTLDEETLDSAAARVVTLLRRAAVGAGEVSGPLDVDAHHRLAREAAARSIVLLRNEVQRSETTGDEGALLPLRPDARIAVIGAFAEQPRYQGAGSSRINPTRLDTALAEIRALASGEVSYSPGFRLTPESVGPAEELRRDAAEAASQAEVAVVFLGLGDDAESEGFDRTGIDLSADQLALLDDVLAANPNTVVVLSNGAVVALPFADRVPAILEAWLGGQAGGGGVADVLFGRVNPSGRLTETIPKRLADSPAYLDFPGEHGHVRYGEGIFVGYRWYDARELEVAFPFGHGLSYTTFSYGQASAALDEDGNITVRLPVTNTGAVAGREVVQAYVSLPGSAVQRPPRELKGFVVVEAEPGQTVEAEMLIRREDLAYWDLRIDRWRVEAGTYRIDVAASSRDIRSSVEVVVPDGDAPIPLNWDSTLGELMAHPVAGPALAQAMAGALEGFAGAGDLMPAGAMAQMAGSLPLRALLTLGGDAVTPETLNQLIVLANGSPRK
# B6: 825 (protein, listed as Bifidobacterium bohemicum)
# chain: MSEQNSERKATLPQAKDLSVEEQSALTSGTNPWSIGRVEGKGLPNYTITDGPHGLRKARDLDGMDVDAAVPATCFPPAAGMSSSWNPELIKKTGEAMGEECVQEQVAVILGPGVNIKRNPLGGRCFEFWSEDPYLAGHEAIGEVEGIQSKGIGTSLKHFAANNQETDRLRVNARISERAMREIYLPAFEHIIKNAQPWTVMCSYNRINGEYASQNSWLLTDVLRKEWGFKGIVMSDWGAVHDRAAALNAGLNLEMPPTHTDDKIVQAVRDGQVKPEQLEAMSQGMIDLVAKTQPAMEKGAAGYRYDVDEHDEIAREAAREAMVLLKNEDGLLPVKPGTKLAVIGEFARTPRYQGAGSSLINPNKLTSFLDALKDRGVEAEFAPGFTLDGDEQSQELTDEAVNAAESADTVLLFIGLPAEAESEGFDRTTLDIPAKQIEVLKAVSAVNKNVVVILSNGSVVSMPWADQAKSILECWLLGQAGGAATADVVFGDVNPSGKLAQTIVNNLDDDPSMLNWPGEEGHVDYGEGVFVGYRYYDSFHKAVTYPFGYGLSYTTFDISEVNAQKSGPQSVHVTAMVTNTGSMAGAEVVQVYVAPPACRVDRPVHELKAFKKVFLEPGQSQEVSFDLDSRAFAYWSERFEDWKVEGGSYGIEVGDSSRSIAQTVPVQLDDDGKRMKLTKWSTYGEWREDPDGNKILDKVISELEAKYGHAIIPDSQLIIMFLKSAPLGGMSMVLGANEAQDICERALAEYAKIGR
# Test: Experiment 5-1: screening of additional glucosidases for deglycosylation with purified QS-18 (0.04 mg/ml) at pH 7.5 and 30 deg C
# Assay type: biochemical, Quillaja saponaria
# Settings: pH 7.5, 30 degrees C, 18 hours, LCMS/MS
# Method: The 94 additional genes, together with positive control (DNA encoding SEQ ID No. 262) and negative control, were transformed, expressed, lysed and reacted in the same manner as described above for Experiment 4-1, except the reaction was incubated at 30 degrees C. for 18 hours.
# Samples were analysed by LCMS/MS according to the procedure in Experiment 4-1.
row,Molecule,Experiment 5-1 % conv
1,B1,29.4%
2,B2,43.9%
3,B3,43.6%
4,B4,49.7%
5,B5,31.4%
6,B6,24.5%

# Test: Experiment 5-2: screening of additional glucosidases for deglycosylation with QS-18 in crude bark extract (80%) at pH 6 and 35 deg C
# Assay type: biochemical, Quillaja saponaria
# Settings: CBE 80%, pH 6, 35 deg C, 18 hours; UV HPLC
# In short: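 Clarified glucosidase lysate (prepared at pH 6) was incubated with pH 6-adjusted crude bark extract at 35 deg C with shaking for 18 hours. Reactions were quenched with MeCN containing 2% AcOH and hexanophenone, then analysed by UV HPLC.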
row,Molecule,Experiment 5-2 % conv
1,B1,<0.5%
2,B2,<0.5%
3,B3,<0.5%
4,B4,<0.5%
5,B5,<0.5%
6,B6,<0.5%

# Test: Experiment 5-3: screening of additional glucosidases for deglycosylation with QS-18 in treated bark extract (80%) at pH 6 and 35 deg C
# Assay type: biochemical, Quillaja saponaria
# Settings: TBE 80% (QS-21 approx. 4 g/L), pH 6, 35 deg C; UV HPLC
# Method: Experiment 5-1 was repeated, replacing CBE with Treated Bark Extract (TBE) at pH 6. TBE was prepared from CBE by PVPP treatment and concentration, to provide TBE with a QS-21 concentration of approximately 4 g/L. TBE was adjusted to pH 6 by dropwise addition of 2M NaOH with stirring.
row,Molecule,Experiment 5-3 % conv
1,B1,<0.5%
2,B2,<0.5%
3,B3,<0.5%
4,B4,<0.5%
5,B5,<0.5%
6,B6,<0.5%
